Test results as given in patent US20230183336A1 (MODMAB THERAPEUTICS, published 2023).

Molecular target: T1, recombinant mouse LRP5-His chimera (mouse, UniProt Q91VN0 31-1383)
T1 construct: extracellular domain; also called ECD of mouse LRP5; not shown: His tag
T1 sequence (looked up): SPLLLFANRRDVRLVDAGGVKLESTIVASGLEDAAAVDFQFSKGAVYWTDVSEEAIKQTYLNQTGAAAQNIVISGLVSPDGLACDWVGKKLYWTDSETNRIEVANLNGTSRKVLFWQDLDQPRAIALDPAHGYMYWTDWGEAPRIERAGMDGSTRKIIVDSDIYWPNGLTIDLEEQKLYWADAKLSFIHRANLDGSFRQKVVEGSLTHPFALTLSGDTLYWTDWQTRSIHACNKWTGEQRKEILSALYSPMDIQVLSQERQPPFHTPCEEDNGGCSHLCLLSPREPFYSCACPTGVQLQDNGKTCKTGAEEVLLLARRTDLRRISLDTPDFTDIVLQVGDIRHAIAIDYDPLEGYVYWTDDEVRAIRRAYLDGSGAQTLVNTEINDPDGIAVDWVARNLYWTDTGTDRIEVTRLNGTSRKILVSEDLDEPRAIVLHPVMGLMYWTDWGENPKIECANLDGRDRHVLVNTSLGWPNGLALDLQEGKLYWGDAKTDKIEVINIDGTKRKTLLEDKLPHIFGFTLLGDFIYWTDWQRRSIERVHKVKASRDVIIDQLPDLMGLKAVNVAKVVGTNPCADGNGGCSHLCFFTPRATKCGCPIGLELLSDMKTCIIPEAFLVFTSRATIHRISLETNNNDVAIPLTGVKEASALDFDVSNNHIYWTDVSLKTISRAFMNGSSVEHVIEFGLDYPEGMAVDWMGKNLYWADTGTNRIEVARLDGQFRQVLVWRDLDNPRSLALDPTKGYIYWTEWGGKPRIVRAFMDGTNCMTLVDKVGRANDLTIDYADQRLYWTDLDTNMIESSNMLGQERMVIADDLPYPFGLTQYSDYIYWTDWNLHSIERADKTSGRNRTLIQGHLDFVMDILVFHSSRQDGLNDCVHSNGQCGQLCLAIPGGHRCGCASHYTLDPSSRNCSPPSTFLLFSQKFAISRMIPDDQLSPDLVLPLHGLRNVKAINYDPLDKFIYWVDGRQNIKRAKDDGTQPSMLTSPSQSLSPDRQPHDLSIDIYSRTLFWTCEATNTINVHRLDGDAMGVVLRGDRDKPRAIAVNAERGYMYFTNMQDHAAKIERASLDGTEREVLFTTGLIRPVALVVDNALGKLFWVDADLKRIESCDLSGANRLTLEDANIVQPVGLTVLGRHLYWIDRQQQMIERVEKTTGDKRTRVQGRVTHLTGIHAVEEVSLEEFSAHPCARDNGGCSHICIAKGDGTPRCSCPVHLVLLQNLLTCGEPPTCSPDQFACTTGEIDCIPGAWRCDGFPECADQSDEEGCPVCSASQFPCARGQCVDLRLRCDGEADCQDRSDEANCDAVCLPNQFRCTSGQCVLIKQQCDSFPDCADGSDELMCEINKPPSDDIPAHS
Test: single-point ELISA, coated antigen, purified Fab or IgG1, anti-kappa-HRP
Description: FIGS. 1A and 1B show sixteen (16) anti-LRP antibodies. (A) The amino acid sequences of the complementarity determining regions (CDR) of the heavy (H) and the light (L) chains are presented. The antibodies were grouped into unique epitopes as determined by competitive ELISAs. (B) Single-point ELISAs were performed on 96-well Maxisorb immune plates coated with ECD's of mouse LRP5, mouse LRP6 and human LRP6 chimeras. The plates were incubated with the purified Fab or IgG1 at the concentrations indicated followed by incubation with horseradish peroxidase (HRP)-conjugated anti-kappa antibody. The wells were washed eight times followed by incubation with 3,3′,5,5′-tetramethylbenzidine/H₂O₂ peroxidase (TMB) substrate for 5-10 min. The reaction was stopped by adding 1M H₃PO₄ and the absorbance was measured spectrometrically at 450 nm in a microtiter plate reader. FIG. 1A discloses “SSVA” as SEQ ID NO: 34, and “SASSLYS” as SEQ ID NO: 35, as well as SEQ ID NOS 36-49, 51, 44, 2-4, 4, 5-7, 5, 4, 5, 8-10, 4, 52, 55, 11-16, 15, 15, 13, 17-20, 13, 53, 56, 21-23, 22, 24-33, 54, 57, respectively, in order of columns.
The full length IgG1s and the antibody fragments (Fabs) were purified and a single-point ELISA was done to determine the specificity of the antibodies. […] A multipoint competitive ELISA was used to determine the relative affinities of the antibodies to the recombinant antigen.

B1: LRP5-H5 (antibody, V domains shown)
VH: EVQLVESGGGLVQPGGSLRLSCAASGFNLSYSSIHWVRQAPGKGLEWVASISSSYGSTSYADSVKGRFTISADTSKNTAYLQMNSLRAEDTAVYYCARGYWAIDYWGQGTLVTVSS
VL: DIQMTQSPSSLSASVGDRVTITCRASQSVSSAVAWYQQKPGKAPKLLIYSASSLYSGVPSRFSGSRSGTDFTLTISSLQPEDFATYYCQQPVGHYGYPITFGQGTKVEIKR
notes: Fab-phage in the screen
binding result: binds
